Results from paper PMC8044712 (STAR Protocols, 2021).

Target: T1, ΔN100 y-mtRNAP (yeast mitochondrial RNA polymerase lacking the N-terminal 100 residues) (S. cerevisiae, UniProt P13433 101-1351)
T1 sequence (looked up): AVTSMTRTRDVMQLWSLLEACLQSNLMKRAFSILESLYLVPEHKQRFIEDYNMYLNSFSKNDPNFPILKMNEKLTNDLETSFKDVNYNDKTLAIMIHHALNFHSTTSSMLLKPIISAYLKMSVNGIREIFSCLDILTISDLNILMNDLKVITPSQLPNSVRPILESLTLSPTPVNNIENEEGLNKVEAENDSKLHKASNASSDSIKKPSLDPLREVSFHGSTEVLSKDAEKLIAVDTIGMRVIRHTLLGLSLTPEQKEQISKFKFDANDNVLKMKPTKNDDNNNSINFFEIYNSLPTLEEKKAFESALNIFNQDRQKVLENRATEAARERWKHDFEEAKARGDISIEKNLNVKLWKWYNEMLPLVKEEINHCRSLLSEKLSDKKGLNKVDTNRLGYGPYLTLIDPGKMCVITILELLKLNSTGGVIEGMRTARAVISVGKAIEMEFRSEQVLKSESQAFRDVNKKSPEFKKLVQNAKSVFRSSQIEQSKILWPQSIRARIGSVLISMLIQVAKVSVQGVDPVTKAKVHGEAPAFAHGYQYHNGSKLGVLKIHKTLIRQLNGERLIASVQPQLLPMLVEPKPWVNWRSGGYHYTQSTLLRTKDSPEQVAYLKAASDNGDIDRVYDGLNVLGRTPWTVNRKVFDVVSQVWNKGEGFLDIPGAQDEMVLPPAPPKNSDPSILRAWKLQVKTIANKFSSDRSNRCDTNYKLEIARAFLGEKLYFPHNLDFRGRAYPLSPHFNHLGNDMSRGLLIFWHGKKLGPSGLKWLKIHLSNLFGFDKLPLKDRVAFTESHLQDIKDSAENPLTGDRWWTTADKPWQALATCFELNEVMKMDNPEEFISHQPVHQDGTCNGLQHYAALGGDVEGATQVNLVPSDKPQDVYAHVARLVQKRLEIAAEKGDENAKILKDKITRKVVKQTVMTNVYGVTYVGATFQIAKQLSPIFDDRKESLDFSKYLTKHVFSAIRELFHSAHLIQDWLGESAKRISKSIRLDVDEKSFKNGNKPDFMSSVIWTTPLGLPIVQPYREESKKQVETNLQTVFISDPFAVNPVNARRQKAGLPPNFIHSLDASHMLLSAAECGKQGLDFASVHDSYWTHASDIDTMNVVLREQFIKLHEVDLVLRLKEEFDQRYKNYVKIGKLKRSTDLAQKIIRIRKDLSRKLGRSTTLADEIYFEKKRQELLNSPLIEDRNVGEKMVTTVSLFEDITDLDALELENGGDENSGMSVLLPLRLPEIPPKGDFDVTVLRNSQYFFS
Test: cryo-EM structure

B1: His-6 tagged MTF1 from S. cerevisiae (mitochondrial transcription initiation factor MTF1) (natural protein)
chain: SVPIPGIKDISKLKFFYGFKYLWNPTVYNKIFDKLDLTKTYKHPEELKVLDLYPGVGIQSAIFYNKYCPRQYSLLEKRSSLYKFLNAKFEGSPLQILKRDPYDWSTYSNLIDEERIFVPEVQSSDHINDKFLTVANVTGEGSEGLIMQWLSCIGNKNWLYRFGKVKMLLWMPSTTARKLLARPGMHSRSKCSVVREAFTDTKLIAISDANELKGFDSQCIEEWDPILFSAAEIWPTKGKPIALVEMDPIDFDFDVDNWDYVTRHLMILKRTPLNTVMDSLGHGGQQYFNSRITDKDLLKKCPIDLTNDEFIYLTKLFMEWPFKPDILMDFVDMYQTEHSG
B1: binds.
